Laboratory results published in US6855693B2, “Peptides for activation and inhibition of δPKC” (The Board of Trustees of the Leland Stanford Junior …, priority 2001, dated 2005).
No end group written: not given here.

Legend:
δPKC = biological target: T1, δPKC (Rattus norvegicus, UniProt P09215); assay: Translocation of δPKC in primary cardiac myocytes (Western blot of soluble and particulate fractions); assay type: cell-based
T1 construct: endogenous in cells; host or cells: primary neonatal rat cardiac myocytes
Protocol: As described in Example 1, the δV1-1 and ψδRACK peptides were analyzed to determine whether the peptides had activity, and if so, whether the activity was as an agonist or an antagonist of δPKC. As will be shown, δV1-1, δV1-2 and δV1-5 are δPKC antagonists and ψδRACK is a δPKC agonist. In these studies, the δV1-1 and ψδRACK peptides were modified with a carrier peptide by cross-linking via an N-terminal Cys-Cys bond to the Drosophila Antennapedia homeodomain (SEQ ID NO:8; Théodore, L., et al.; Johnson, J. A. et al., 1996b). In other studies, not described here, the peptide was modified with Tat (SEQ ID NO:9) or with polyarginine (Mitchell et al., 2000; Rothbard et al., 2000) and gave results similar to those described herein. Details of the study are set forth in Example 1. In brief, the Antennapedia-conjugated peptides were introduced to cardiac cells at a concentration of 500 nM in the presence and absence of phorbol 12-myristate 13-acetate (PMA) or in the presence of each other. Translocation of δPKC isozyme was assessed by Western blot analysis cystosolic and particulate fractions of treated cells. Subcellular localization of δPKC isozyme was assessed by immunofluorescence by probing the blot with […], and anti-εPKC antibodies. Translocation was expressed as the amount of isozyme in the particulate fraction over the amount of isozyme in non-treated cells.
Primary cardiac myocyte cell cultures (90-95% pure) were prepared from newborn rats (Gray, M. O. et al.; Disatnik M.-H. et al.). The peptides δV1-1 and ψδRACK were introduced into cells at an applied concentration of 500 nM in the presence and absence of phorbol 12-myristate 13-acetate (PMA) at concentrations of 3 nm and 10 nm, respectively, for 10-20 minutes. In a third set of cells, the peptide δV1-1 was applied at a concentration of 500 nM in the presence and absence of 500 nM ψδRACK.
Translocation of δPKC isozyme was assessed by using δPKC isozyme-specific antibodies in Western blot analysis (Santa Cruz Biotechnology). Western blot analysis of cystosolic and particulate fractions of treated cells was carried out as described by Johnson et al., 1995. Subcellular localization of dPKC isozymes was assessed by chemiluminescence of blots probed with anti-δPKC, anti-αPKC and anti-εPKC antibodies. Amounts of PKC isozymes in each fraction was quantitated using a scanner and translocation is expressed as the amount of isozymes in the particulate fraction over the amount of isozymes in non-treated cells. Changes in translocation of δPKC isozyme were also determined by immunofluoresence study of treated and fixed cells (Gray et al., 1997). Translocation was determined by counting over 100 cells/treatment in a blinded fashion. The results are shown in FIG. 2A-2B, FIGS. 3A-3B and FIGS. 4A-4B.

εPKC = biological target: T2, εPKC (Rattus norvegicus, UniProt P09216); assay: Translocation of εPKC in primary cardiac myocytes (Western blot); assay type: cell-based; details: data not shown
T2 construct: blots probed with anti-δPKC, anti-αPKC and anti-εPKC antibodies; endogenous in cells; host or cells: primary neonatal rat cardiac myocytes
T2 sequence (P09216 1-737): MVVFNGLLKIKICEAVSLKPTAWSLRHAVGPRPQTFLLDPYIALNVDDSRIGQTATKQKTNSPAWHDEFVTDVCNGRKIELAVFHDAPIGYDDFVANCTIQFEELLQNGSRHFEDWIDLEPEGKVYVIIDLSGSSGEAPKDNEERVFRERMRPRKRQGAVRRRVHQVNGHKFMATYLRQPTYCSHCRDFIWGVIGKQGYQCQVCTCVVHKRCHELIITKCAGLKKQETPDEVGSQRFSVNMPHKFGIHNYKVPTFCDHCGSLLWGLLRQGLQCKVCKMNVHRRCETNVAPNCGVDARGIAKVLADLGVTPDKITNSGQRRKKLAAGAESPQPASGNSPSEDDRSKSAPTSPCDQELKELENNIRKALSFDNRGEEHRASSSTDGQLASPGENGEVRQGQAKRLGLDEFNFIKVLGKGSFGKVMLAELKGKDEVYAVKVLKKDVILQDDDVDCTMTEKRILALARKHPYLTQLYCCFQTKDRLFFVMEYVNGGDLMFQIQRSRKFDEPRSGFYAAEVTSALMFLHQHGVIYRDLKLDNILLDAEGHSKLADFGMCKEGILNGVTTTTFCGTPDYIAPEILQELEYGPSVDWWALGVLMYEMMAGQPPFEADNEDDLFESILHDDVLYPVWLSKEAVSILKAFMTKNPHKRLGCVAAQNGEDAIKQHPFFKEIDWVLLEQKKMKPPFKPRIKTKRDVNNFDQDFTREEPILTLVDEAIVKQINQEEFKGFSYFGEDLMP
Protocol: As described in Example 1, the δV1-1 and ψδRACK peptides were analyzed to determine whether the peptides had activity, and if so, whether the activity was as an agonist or an antagonist of δPKC. As will be shown, δV1-1, δV1-2 and δV1-5 are δPKC antagonists and ψδRACK is a δPKC agonist. In these studies, the δV1-1 and ψδRACK peptides were modified with a carrier peptide by cross-linking via an N-terminal Cys-Cys bond to the Drosophila Antennapedia homeodomain (SEQ ID NO:8; Théodore, L., et al.; Johnson, J. A. et al., 1996b). […] Translocation of δPKC isozyme was assessed by Western blot analysis cystosolic and particulate fractions of treated cells. Subcellular localization of δPKC isozyme was assessed by immunofluorescence by probing the blot with […], and anti-εPKC antibodies. Translocation was expressed as the amount of isozyme in the particulate fraction over the amount of isozyme in non-treated cells. […]
Translocation of δPKC isozyme was assessed by using δPKC isozyme-specific antibodies in Western blot analysis (Santa Cruz Biotechnology). […] Subcellular localization of dPKC isozymes was assessed by chemiluminescence of blots probed with anti-δPKC, anti-αPKC and anti-εPKC antibodies. […] Changes in translocation of δPKC isozyme were also determined by immunofluoresence study of treated and fixed cells (Gray et al., 1997). […]

whole rat hearts = assay: Ex vivo whole hearts, peptide during reperfusion after 20 min global ischemia, functional recovery
Protocol: Another study was performed to determine if the peptides could be delivered to an intact organ to provide protection after an ischemic insult. In this study, as described in Example 4, the rat heart model described above was used and the hemodynamic parameters were measured during the 20 minutes of global ischemia and the […]. During the reperfusion only, δV1-1 was delivered at a concentration of 500 nM.
In a similar study, five pairs of rats were treated as described in Example 4, where the ex vivo hearts were subjected to 20 minutes of ischemia and 30 minutes of reperfusion. During the first 20 minutes of reperfusion, 500 nM of δV1-1 or vehicle control was administered.
Rat hearts were isolated as described in Example 3. The left ventricular pressure and its real-time derivative (dP/dt) were monitored via a latex balloon placed in the ventricular cavity and at a constant heart rate by pacing (3.3 Hz) and at a constant coronary flow (10 ml/min.). The hearts were subjected to 20 minutes of ischemia and 30 minutes of re-perfusion. During the first 20 minutes of reperfusion, 500 nM of δV1-1 or vehicle control was delivered.

adult female pigs = assay: Pathology of blood and tissue samples of the treated pigs; set-up: species or system pig; details: pigs treated in vivo with δV1-1
Description: (§1) Blood samples and tissue samples of lung, liver, brain, gut, kidney, etc. were collected from the animals and analyzed at a pathology lab. […] Kidney, liver, brain, and lung functions were normal and all blood analyses were also normal.

mouse model = assay: Safety of two injections in the mouse model; assay type: in vivo; details: 1 μM final concentration
Description: as §1

[1] = 500 nM during reperfusion after 20 minutes global ischemia

T1 sequence (P09215 whole entry): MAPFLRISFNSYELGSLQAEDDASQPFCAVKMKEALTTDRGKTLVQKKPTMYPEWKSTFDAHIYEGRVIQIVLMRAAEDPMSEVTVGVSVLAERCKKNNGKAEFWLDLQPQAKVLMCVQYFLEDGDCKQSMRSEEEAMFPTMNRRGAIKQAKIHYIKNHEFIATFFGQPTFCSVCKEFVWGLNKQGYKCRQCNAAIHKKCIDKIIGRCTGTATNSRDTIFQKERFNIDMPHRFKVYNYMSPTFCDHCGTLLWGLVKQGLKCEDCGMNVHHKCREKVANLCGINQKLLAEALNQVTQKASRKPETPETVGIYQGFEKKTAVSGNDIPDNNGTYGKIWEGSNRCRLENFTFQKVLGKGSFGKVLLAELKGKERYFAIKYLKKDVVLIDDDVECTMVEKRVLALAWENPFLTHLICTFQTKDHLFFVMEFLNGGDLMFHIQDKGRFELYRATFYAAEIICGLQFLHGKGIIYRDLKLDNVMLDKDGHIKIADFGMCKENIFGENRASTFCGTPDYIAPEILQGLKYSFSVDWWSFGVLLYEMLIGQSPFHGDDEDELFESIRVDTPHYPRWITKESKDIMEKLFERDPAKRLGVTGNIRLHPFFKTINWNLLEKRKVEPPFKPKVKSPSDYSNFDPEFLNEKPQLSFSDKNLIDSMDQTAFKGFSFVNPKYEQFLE

Sequence: MRAAEDPM (also: conjugated to Antennapedia or Tat carrier; listed as Rattus norvegicus) [ψδRACK, tested conjugated to Antennapedia or Tat carrier]
- δPKC translocation induced by the peptide (δPKC; 500 nM Antennapedia-conjugated peptide, cardiac myocytes): selectively induced
- effect on the δV1-1 inhibition of basal δPKC partitioning (δPKC; 500 nM ψδRACK together with 500 nM δV1-1): reversed
- translocation of εPKC (εPKC): without affecting

Sequence: SFNSYELGSL (also: conjugated to Antennapedia or Tat carrier; listed as Rattus norvegicus) [δV1-1, tested conjugated to Antennapedia or Tat carrier]
- PMA-induced δPKC translocation (δPKC; 500 nM Antennapedia-conjugated peptide, with PMA, 10-20 minutes, newborn rat cardiac myocytes): inhibited
- basal partitioning of δPKC in the particulate fraction (δPKC; 500 nM δV1-1, no ψδRACK): inhibited
- translocation of εPKC (εPKC): did not inhibit
- end diastolic pressure (EDP) (whole rat hearts; 500 nM during first 20 minutes of reperfusion, 5-30 minutes after reperfusion): approximately 60 mmHg
- coronary perfusion pressure (PP) (whole rat hearts; [1]): reduced
- elevated LVP end diastolic pressure (whole rat hearts; [1]): reduced
- reduction in creatine phosphokinase release compared with vehicle control (whole rat hearts; 500 nM during reperfusion after 20 minutes global ischemia, not shown): ~50%
- perfusion pressure (PP) relative to hearts left untreated (whole rat hearts; after ischemia and after treatment with 500 nM δV1-1): about 75%
- blood samples and tissue samples of lung, liver, brain, gut, kidney, pathology (adult female pigs): All samples were normal and no inflammation or tissue abnormalities were observed
- adverse effect of two injections (mouse model; mouse model): no adverse effect
- blood analyses (mouse model; two injections): normal
- kidney, liver, brain, and lung functions (mouse model; two injections): normal
